According to patent publication EP4700040A1 (Shenzhen Loggene Life Science & Technology Co., Ltd., dated 2024):
Residue numbers refer to the chain shown, from its start. Read-outs that look alike come from different tables or passages of the source. Blank lines part the entries; values can stand above or below the binder they belong to.

What was measured:
[1] = target: T1, Recombinant human IL6 protein with C-terminal six-histidine tag (human, UniProt P05231 29-212); assay: homogeneous split-luciferase sandwich with RB073-449-1, signal rises with IL6
T1 construct: also called human interleukin 6

[2] = target: Large subunit-rSCFV5 fusion protein; assay: cell-based or functional assay
[3] = target: Large subunit-rSCFV5 fusion protein; assay: cell-based or functional assay; remark: listed apart in the source
[4] = target: Large subunit-rSCFV5 fusion protein; assay: cell-based or functional assay; remark: listed apart in the source
[5] = target: Large subunit-rSCFV5 fusion protein; assay: cell-based or functional assay; remark: listed apart in the source
[6] = target: Large subunit-rSCFV5 fusion protein; assay: cell-based or functional assay; remark: listed apart in the source
[7] = target: T1, Recombinant human IL6 protein with …; assay: homogeneous split-luciferase sandwich with OL-453, signal rises with IL6

- binding result [1]: binds
B1: fusion protein OL-453 of the large subunit with human IL6 SCFV antibody 453 (other)
chain: VFTLEDFVGDWEQTAAYNLDQVLEQGGVSSLLQNLAVSVTPIQRIVRSGENALKIDIHVIIPYEGLSADQMAQIEEVFKVVYPVDDHHFKVILPYGTLVIDGVTPNMLNYFGRPYEGIAVFDGKKITVTGTLWNGNKIIDERLITPDGSMLFRVTINSGSSGGGGSGGGGSGGQAVLTQPSSVSKSLGQSVSITCSGSNIGSSAVGWYQQLPGSGLKTIIYSTSSRPSGVPDRFSGSKSGNTATLTISSLQAEDEADYYCATGDRGNYGGVFGSGTRLTVLSSGGGGSGGGGGGSSRSSQVQLQESGPSLVKPSQTLSLTCTVSGFSLTSYGVGWVRQAPGKTPEWLGGIDRDGDMSYNPALKSRLSITRDTSKSQVSLSLRSVATEDTAVYYCARSSYDSHYYGDYYDVDVWGRGLLVTVSSGQAGHHHHHH
notes: also called large subunit fusion protein OL-453

- Signal-to-noise ratio at 1000 pg/ml [2]: 1.44
- Signal-to-noise ratio [3]: 12.2
- Signal-to-noise ratio at 1000 pg/ml [4]: 3.8
- Signal-to-noise ratio at 1000 pg/ml [5]: 3.8
- Signal-to-noise ratio [6]: 1.9
B2: rSCFV18-small subunit P114 fusion protein (other)
chain: AHHHHHHGSGDIVLTQTPSPVSAAVGGTVSINCQSSQSVYKNNRLSWYQQKPGQPPKFLIYDTSKLASGVPSRFSGSGSGTQFTLTISDLECDDAATYYCAGGYSNNIGAFGGGTEVVVKSSGGGGSGGGGGGSSRSSQSLEESRGRLVTPGGSLTLTCSVSGFSLSIYNMGWVRQAPGEGLEWIGVIGSSGNTYYASWAKGRFTISRNTNDNTVDLKITSPTTGDTATYFCARGFSSFDIWGPGTLVTVSSGGGGSGGGGSGGGGSVTGYRLFEEIL

- Signal-to-noise ratio at 1000 pg/ml [2]: 38.9
- Signal-to-noise ratio [3]: 48
- Signal-to-noise ratio at 1000 pg/ml [4]: 14.5
B3: rSCFV18-RB073 fusion protein (other)
chain: B2 chain with T269E, E275D, E276R, I277K, L278S

- binding result [7]: binds
B4: fusion protein RB073-449-1 of the small subunit peptide RB073 with human IL6 SCFV antibody 449-1 (other)
chain: VEGYRLFDRKSGGGGSGGGGSGGGGSQSALTQPSSVSKSLGQSVSITCSGSSSNVGYGNYVSWYQQVPGSAPKFLIYGATSRASGVPARFSGSRSGNTATLSISSLQAEDEADYYCASYDSSSYGVFGSGTTLTVLSSGGGGSGGGGGGSSRSSQVRLQESGPSLVKPSQTLSLTCTVSGFSLTNYPVGWVRQAPGKALEWLGGISSGGGTAYNPALKSRLSFTRDTSKNQVSLSLSSVTSEDTAVYYCTRGNGDYVLRYGADVWGRGLLVTVSSGSGHHHHHH
notes: also called small subunit fusion protein RB073-449-1
